Assay results reported in patent publication US11161912B2, “Heparanase-neutralizing monoclonal antibodies” (Technion Research & Development Foundation Limited, priority 2015, dated 2021).

Experiments:
heparanase = target: T1, heparanase (Homo sapiens, UniProt Q9Y251); test: Intracellular heparanase content of heparanase-transfected 293 cells (immunofluorescence, immunoblot); assay type: cell-based; conditions: cells over-expressing heparanase grown with mAb for two days
T1 sequence (Q9Y251 36-543): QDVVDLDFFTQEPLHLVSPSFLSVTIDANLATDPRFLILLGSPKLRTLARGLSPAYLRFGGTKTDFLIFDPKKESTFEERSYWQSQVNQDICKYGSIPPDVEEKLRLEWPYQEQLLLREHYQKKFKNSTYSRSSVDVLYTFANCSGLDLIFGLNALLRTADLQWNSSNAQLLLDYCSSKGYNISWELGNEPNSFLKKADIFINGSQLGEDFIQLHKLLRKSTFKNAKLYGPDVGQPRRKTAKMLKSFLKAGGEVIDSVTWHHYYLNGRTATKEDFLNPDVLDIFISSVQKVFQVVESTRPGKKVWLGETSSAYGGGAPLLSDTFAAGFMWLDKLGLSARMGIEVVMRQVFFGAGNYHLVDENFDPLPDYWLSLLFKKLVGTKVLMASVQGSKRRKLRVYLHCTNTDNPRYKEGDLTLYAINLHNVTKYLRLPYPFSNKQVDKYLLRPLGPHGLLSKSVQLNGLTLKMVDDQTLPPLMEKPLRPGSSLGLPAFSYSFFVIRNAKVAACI
Protocol: FIG. 3A. HEK 293 cells were incubated with latent 65 kDa (upper panel) or GS3 constitutively active heparanase (1 μg/ml; third panel) and the indicated mAbs (10 μg/ml). The cell medium was aspirated at the time designated and cell lysates were subjected to immunoblotting applying anti-heparanase antibody (upper and third panels). […] Heparanase-transfected 293 cells were grown with control mouse IgM or mAb 9E8 for two days. Cells were then fixed with methanol and subjected to immunofluorescent staining applying anti heparanase antibody (second panel) or lysed and subjected to immunoblotting applying anti-heparanase antibody (fourth panel). Purified recombinant active heparanase (200 ng) was pre-incubated with control mouse IgM ( ? ), mAb 8A5 ( ? ), mAb 9E8 ( ? ), all at 2 μg/ml, for 2 h in serum-free RPMI medium on ice. The mixture was then applied onto ^35S-labeled ECM-coated dishes and heparanase activity was determined as described above (lower panel). FIG. 3B, C. ESb mouse T-lymphoma cells (5×10^5) were inoculated subcutaneously in NOD/SCID mice (n=5) and treated with PG545 (20 mg/kg, once a week) (B) or the indicated mAb (500 μg/mouse every other day) (C). FIG. 3C. […] Quantification of the extent of CD45 staining is shown graphically in the lower panel. […]

Cal-27 tongue carcinoma = test: Matrigel cell invasion, Cal-27 tongue carcinoma cells; assay type: cell-based, human; conditions: Cal-27 cells, mAb 2 μg, 6 h
Protocol: Cell invasion. Matrigel invasion assay was performed using modified Boyden chambers with polycarbonate Nucleopore membrane (Corning, Corning, N.Y.), essentially as described (17). Briefly, filters (6.5 mm in diameter, 8 μm pore-size) were coated with Matrigel (30 μl); Cells (2×10^5) in 100 μl of serum-free medium were seeded in triplicate on the upper part of each chamber, and the lower compartment was filled with 600 μl medium supplemented with 10% FCS. After incubation for 5 h at 37° C. in a 5% CO2 incubator, non-invading cells on the upper surface of the filter were wiped with a cotton swab, and migrated cells on the lower surface of the filter were fixed, stained with 0.5% crystal violet (Sigma) and counted by examination of at least seven microscopic fields.
FIG. 5A. Cell invasion. Cal-27 tongue carcinoma (left panels) and U87 glioma cells (right panels) (2×10^5) were plated onto Matrigel-coated filters in the presence of mouse IgM/IgG (upper panels), mAb 9E8 (2 μg; second left and middle panels). Invading cells adhering to the lower side of the membrane were visualized after 6 h. […] Lungs were harvested after 18 days, photographed (lower panel) and the number of metastatic lesions was counted (upper panel; p=0.001, 0.0006, 0.0001 for Con vs. Ab 1453, Con vs. mAb 9E8 and Con vs. SST0001, respectively). […]

B1: mAb 9E8: monoclonal IgM raised against KKDC peptide (Lys158-Asn171) of heparanase; VH SEQ ID NO: 7, VL SEQ ID NO: 8 (antibody)
VH: EVKLLESGGGLVQPGGSLKLSCAASGFDFSRYWMSWVRQAPGKGLEWIGEINPDSSTINYTPSLKDKFIISRDNAKNTLYLQMSKVRSEDTALYYCARRGYEGNYAMDYWGQGTSVTVSSESQSFPNVFPLVSCESPLSDKNLVAMGCLAR
VL: DIVMTQAAPSVPVTPGESVSISCRSSKSLLHSNGNTYLYWFLQRPGQSPQLLIYRMSNLASGVPDRFSGSGSGTAFTLRISRVEAEDVGVYYCMQHLEYPFTFGSGTKLEIKRADAAPTVSIFPPSSEQLTSGGASVVCFL
modifications: IgM constant regions
- intracellular content of heparanase (heparanase): marked decrease
- cell invasion (Cal-27 tongue carcinoma): inhibitory effect
